The source of these data is paper PMC4841919 (Neurobiology of aging, 2016).

In data set [1] the target is striatal-enriched tyrosine phosphatase STEP61 (endogenous, rat brain) (rat (endogenous in Sprague-Dawley rat brain)). Description: non-reducing SDS-PAGE and immunoblot. On the technique in general: In western blotting, separated proteins are transferred to a membrane and probed.
Data set [2] deals with the molecule itself. Description: non-reducing SDS-PAGE and immunoblot.

Take “striatal-enriched tyrosine phosphatase STEP61 (endogenous, rat brain) (enzyme)”: in data set [1], the dimer band after N-acetyl cysteine, percent of untreated aged control, cortex was 59.4 % of control; the fold increase of the dimer band in aged rats, cortex came to 6.2 fold; the fold increase of the dimer band in aged rats, hippocampus came to 5.9 fold; the stoichiometry N (in general, a count of units in the complex or per binding partner) was 2.

B1: V5- and myc-tagged STEP61 (wild type) (enzyme, UniProt P54830-1 1-541, looked up)
chain: MCCSERLLGLPQPVEMEAPDEAEGLPSKQKEMPPPPPPSPPSEPAQKLPPQGAGSHSLTVRSSLCLFAASQFLLACGVLWLSGHGHSWLQNTTDLISSSLTVLNHLGPVAWLGSGTWGIPSLLLVSLTVSLVIVTTLVWHLLKAPPEPPAPLPPEDRRQSVSRQPSFTYSEWMEEKVEDDFLDLDAVPETPVFDCVMDIKPETDPASLTVKSMGLQERRGSNVSLTLDMCTPGCNEEGFGYLVSPREESAHEYLLSASRVLRAEELHEKALDPFLLQAEFFEIPMNFVDPKEYDIPGLVRKNRYKTILPNPHSRVRLTSPDPEDPLSSYINANYIRGYSGEEKVYIATQGPIVSTVADFWRMVWQERTPIIVMITNIEEMNEKCTEYWPEEQVVHDGVEITVQKVIHTEDYRLRLISLRRGTEERSLKHYWFTSWPDQKTPDRAPPLLHLVREVEEAAQQEGPHCSPIIVHCSAGIGRTGCFIATSICCQQLRREGVVDILKTTCQLRQDRGGMIQTCEQYQFVHHAMSLYEKQLSLQSSE
As to B1, the “stoichiometry N” value in data set [2] was ≥ 2.
